The text below walks through data of paper PMC10143413.

For assay [1], the target named is Pyruvate kinase PKM1, purified from rabbit skeletal muscle (rabbit) (UniProt P11974). Kind of assay: SPR; Biacore T200, 25 °C; PKM1 amine-coupled to a CM5 chip, creatine kinase as analyte in 0.05 M potassium phosphate buffer pH 7.4, 10 µL/min for 5 min; global fit to the 1:1 binding model.
In assay [2] the target is Aldolase A, purified from rabbit skeletal muscle (rabbit) (UniProt P00883). The experiment in a line: SPR; Biacore T200, 25 °C; GAPDH, LDH or aldolase A amine-coupled to a CM5 chip, PKM1 as analyte in 0.05 M potassium phosphate buffer pH 7.4, 10 µL/min for 5 min; global fit to the 1:1 binding model. Background: Surface plasmon resonance follows binding to a sensor surface in real time, without labels.
Sequence of Aldolase A, purified from rabbit skeletal muscle (rabbit) (P00883 whole entry): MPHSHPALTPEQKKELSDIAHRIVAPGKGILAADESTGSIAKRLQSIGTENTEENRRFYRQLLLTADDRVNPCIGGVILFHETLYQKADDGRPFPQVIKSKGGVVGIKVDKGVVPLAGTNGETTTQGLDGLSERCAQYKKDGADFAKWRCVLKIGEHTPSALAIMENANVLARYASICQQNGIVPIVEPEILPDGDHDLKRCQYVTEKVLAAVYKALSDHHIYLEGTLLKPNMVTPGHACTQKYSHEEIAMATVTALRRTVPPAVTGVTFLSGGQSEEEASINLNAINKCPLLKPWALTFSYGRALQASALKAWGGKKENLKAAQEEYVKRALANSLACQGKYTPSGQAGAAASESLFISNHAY

Assay [3] addresses Lactate dehydrogenase, purified from rabbit skeletal muscle (rabbit) (UniProt P13491). The description is as above.

One may read the Kd as the concentration at which binding is half-saturated. As usually defined, the koff is the first-order rate constant of dissociation. A low value points to a long-lived complex. A word on the kon: it is a measure of how fast the partners come together. A high value points to faster complex formation.

Sequence of Pyruvate kinase PKM1, purified from rabbit skeletal muscle (P11974 whole entry): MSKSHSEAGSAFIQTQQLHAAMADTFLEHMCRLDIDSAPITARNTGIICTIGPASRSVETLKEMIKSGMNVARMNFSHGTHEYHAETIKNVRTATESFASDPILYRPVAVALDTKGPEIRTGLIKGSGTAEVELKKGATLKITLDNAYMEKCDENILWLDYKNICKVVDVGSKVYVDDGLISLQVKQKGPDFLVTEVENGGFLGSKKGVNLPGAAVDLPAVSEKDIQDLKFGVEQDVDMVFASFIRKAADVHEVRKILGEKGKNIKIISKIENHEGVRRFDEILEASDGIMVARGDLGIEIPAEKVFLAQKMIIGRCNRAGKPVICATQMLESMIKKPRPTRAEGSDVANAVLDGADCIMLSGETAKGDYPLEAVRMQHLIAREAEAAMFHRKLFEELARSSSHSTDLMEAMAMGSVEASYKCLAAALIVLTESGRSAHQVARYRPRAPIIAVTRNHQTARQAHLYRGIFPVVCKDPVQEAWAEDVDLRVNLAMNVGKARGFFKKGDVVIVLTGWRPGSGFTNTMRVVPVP
Sequence of Pyruvate kinase PKM1, purified from rabbit skeletal muscle, P11974-1 1-531 (enzyme; other documents disagree on this pair) (P11974 whole entry): as above
Sequence of Pyruvate kinase PKM1, purified from rabbit skeletal muscle (rabbit) (P11974 whole entry): as above

In assay [1], “Creatine kinase from rabbit muscle (from UniProt P00563 1-381) (enzyme)” returned a Kd of 10.7 nM, an off-rate constant (koff) of 0.000924 s⁻¹ and a kon of 86400 M⁻¹ s⁻¹.

In assay [2], “Pyruvate kinase PKM1, purified from rabbit skeletal muscle, P11974-1 1-531 (enzyme; other documents disagree on this pair)” had a Kd of 1410 nM, a koff of 0.00238 s⁻¹ and a kon of 1690 M⁻¹ s⁻¹.

As for “Pyruvate kinase PKM1, purified from rabbit skeletal muscle (from UniProt P11974-1 1-531) (enzyme)”, in assay [3], the Kd came to 4800 nM, the koff was determined as 0.00657 s⁻¹ and the kon is 1370 M⁻¹ s⁻¹.
